Where two headings read alike, the source gives them in different places.
Columns and labels:
[1] = molecular target: eIF4GII_(551–745)/eIF4E complex (human | murine) (UniProt O43432); assay: SEC-MALS; Superdex 200 10/300 in assay buffer, miniDAWN light scattering instrument, 100 µg sample
[2] = molecular target: eIF4GII_(551–745)/eIF4E complex (human | murine) (UniProt O43432); assay: ITC; MicroCal ITC microcalorimeter; the ligand titrated into the protein in the cell (cell about 10× lower than titrant); 25°C; 20 mM Hepes/KOH pH 7.4, 150 mM KCl, 1 mM EDTA; three experiments
[3] = molecular target: human eIF4GII residues 551–745 (human) (UniProt O43432); assay: as above
[4] = molecular target: recombinant full-length murine eIF4E (murine) (UniProt P63073); assay: SEC-MALS; static light scattering after 10 min of complex formation
Sequence of recombinant full-length murine eIF4E (murine) (P63073 whole entry, the tested form may be a part): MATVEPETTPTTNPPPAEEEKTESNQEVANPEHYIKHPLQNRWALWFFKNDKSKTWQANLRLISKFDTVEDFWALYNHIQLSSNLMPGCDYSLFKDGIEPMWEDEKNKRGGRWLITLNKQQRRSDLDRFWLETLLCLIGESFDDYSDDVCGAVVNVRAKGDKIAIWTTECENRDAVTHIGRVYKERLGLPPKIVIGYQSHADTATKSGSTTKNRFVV

[5] = molecular target: recombinant full-length murine eIF4E (murine) (UniProt P63073); assay: SEC-MALS; static light scattering on eIF4E/2A^proC106S complexes formed overnight
[6] = molecular target: human eIF4GII residues 551–745 (human) (UniProt O43432); assay: ITC; MicroCal ITC microcalorimeter; the ligand titrated into the protein in the cell (cell about 10× lower than titrant); 25°C; 20 mM Hepes/KOH pH 7.4, 150 mM KCl, 1 mM EDTA; three experiments; remark: listed apart in the source
[7] = molecular target: recombinant full-length murine eIF4E (murine) (UniProt P63073); assay: as above
[8] = molecular target: HRV2 2A^proC106S (human rhinovirus 2); assay: SEC-MALS; Superdex 200 10/300 in assay buffer, miniDAWN light scattering instrument, 100 µg sample
[9] = molecular target: recombinant full-length murine eIF4E (murine) (UniProt P63073); assay: ITC; MicroCal ITC microcalorimeter; the ligand titrated into the protein in the cell (cell about 10× lower than titrant); 25°C; 20 mM Hepes/KOH pH 7.4, 150 mM KCl, 1 mM EDTA; three experiments; remark: listed apart in the source
[10] = molecular target: T1, recombinant full-length murine eIF4E (murine, UniProt P63073 1-217); assay: SEC-MALS; Superdex 200 10/300 in assay buffer, miniDAWN light scattering instrument, 100 µg sample; settings: both partners purified
T1 sequence (P63073 whole entry): as the sequence (P63073 whole entry, the tested form may be a part) above

[11] = molecular target: T1, recombinant full-length murine eIF4E; assay: ITC; MicroCal ITC microcalorimeter; the ligand titrated into the protein in the cell (cell about 10× lower than titrant); 25°C; 20 mM Hepes/KOH pH 7.4, 150 mM KCl, 1 mM EDTA; three experiments; settings: both partners purified

## CVB4 2A^proC110A with a N-terminal extension of eight VP1 residues (enzyme)
[1]
  stoichiometry N: 1
[2]
  Kd: 19 µM
[3]
  Kd: 19 µM

## HRV2 2A^pro bearing the mutations C106S and C138S (enzyme)
[4]
  stoichiometry N: 1

## HRV2 2A^proC106S (enzyme)
[5]
  stoichiometry N: 1
[6]
  Kd: 86 µM
[7]
  Kd: 8 µM
[8]
  stoichiometry N: 2
[9]
  Kd: 12 µM
[2]
  Kd: 5.1 µM
[3]
  Kd: 75 µM

B1: human eIF4GII residues 551–745 (domain or fragment, UniProt O43432 551-745, looked up)
chain: GFHPERDPSDLKKVKAVEENGEEAEPVRNGAESVSEGEGIDANSGSTDSSGDGVTFPFKPESWKPTDTEGKKQYDREFLLDFQFMPACIQKPEGLPPISDVVLDKINQPKLPMRTLDPRILPRGPDFTPAFADFGRQTPGGRGVPLLNVGSRRSQPGQRREPRKIITVSVKEDVHLKKAENAWKPSQKRDSQADD
[10]
  stoichiometry N: 1
[11]
  Kd: 0.042 µM

Source: PMC4815241 (Protein Science : A Publication of the Protein Society, 2015)
